According to publication PMC12335366:

Experiments:
[1] = target: BG505 DS-SOSIP.664 stabilized soluble HIV-1 Env trimer (HIV-1 (clade A, strain BG505)) (UniProt Q2N0S6); assay: negative stain electron microscopy
[2] = target: BG505 Env (unmutated), on pseudovirus (HIV-1 (clade A, strain BG505)) (UniProt Q2N0S6)
[3] = target: CH505 Env, on pseudovirus (HIV-1 (clade C, isolate CH505))

CH103 KN Fab (partially UCA-reverted CH103 mutant, E75K and D76N)
stoichiometry N (Fab per trimer) [1]: 1

mature CH103 Fab
stoichiometry N (Fabs per trimer) [1]: 2

B1: CH103 KN antibody (IgG; E75K and D76N in the heavy chain) (antibody, V domains shown)
V domain 1: QVQLQESGPGVVKSSETLSLTCTVSGGSMGGTYWSWLRLSPGKGLEWIGYIFHTGETNYSPSLKGRVSISVDTSKNQFSLRLRSVTAADTAVYFCASLPRGQLVNAYFRNWGRGSLVSVTA
V domain 2: SYELTQPPSVSVSPGQTATITCSGASTNVCWYQVKPGQSPEVVIFENYKRPSGIPDRFSGSKSGSTATLTIRGTQAIDEADYYCQVWDSFSTFVFGSGTQVTVL
neutralisation of BG505 pseudovirus (TZM-bl), decrease against mature CH103 [2]: > 3 fold
neutralisation of CH505 pseudovirus (TZM-bl), decrease against mature CH103 [3]: > 3 fold
